Biological target: T1, H3K9me2 peptide
T1 chain: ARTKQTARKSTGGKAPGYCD

B1: SUV39H1 (protein)
chain: EVEYLCDYKKIREQEYYLVKWRGYPDSESTWEPRQNLKCVRILKQFHKDLERELLRRHHRSKTPRHLDPSLANYLVQKAKQRRALRRWEQELNAKRSHLGRITVENEVDLDGPPRAFVYINEYRVGEGITLNQVAVGCECQDCLWAPTGGCCPGASLHKFAYNDQGQVRLRAGLPIYECNSRCRCGYDCPNRVVQKGIRYDLCIFRTDDGRGWGVRTLEKIRKNSFVMEYVGEIITSEEAERRGQIYDRQGATYLFDLDYVEDVYTVDAAYYGNISHFVNHSCDPNLQVYNVFIDNLDERLPRIAFFATRTIRAGEELTFDYNMQVDPVDMESTRMDSNFGLAGLPGSPKKRVRIECKCGTESCRKYLF
- histone methyltransferase activity (H3K9me3 product detected by ELISA with 309M3-A): activity of the HMT SUV39H1 and its inhibition by an HMT inhibitor, chaetocin (Greiner et al., 2005), were clearly observed with 309M3-A
